Key:
[1] = target: S. aureus PhoU with amino terminal histidine tag (pETphoU1_6xHN) (S. aureus Mu50); assay: SEC; HiPrep 16/60 Sephacryl S-200 HR, 50 mM NaPO4, 150 mM NaCl pH 7.0, 0.5 mL/min; elution volume compared with volumes calculated from protein standards; loaded immediately after Ni purification
[2] = target: S. aureus PitR with amino terminal histidine tag (pETphoU2_6xHN) (S. aureus Mu50); assay: as above

stoichiometry N [1]	stoichiometry N [2]	Substance
2	–	S. aureus PhoU with amino terminal histidine tag (pETphoU1_6xHN) (natural protein)
–	2	S. aureus PitR with amino terminal histidine tag (pETphoU2_6xHN) (natural protein)
